The record followed here is patent publication US20220306744A1 (CRESCENDO BIOLOGICS, published 2022).

Assay [1] has as its target T1, human PD-1 expressed on cells (CHO TREX human PD1 cell line, full-length human PD-1 sequence) (human, UniProt Q15116 21-288).
T1 construct: Also used for human PD-1 on Jurkat reporter cells, on PathHunter cells and on PHA-stimulated human CD4+ T cells; also called CHO human PD1 cells; CHO human PD-1 cells
As to the kind of experiment: epitope competition assay on CHO human PD1 cells (labelled VH not specified) after 0 days in human serum.

The target in assay [2] is T1, human PD-1 expressed on cells (CHO TREX …). Briefly: epitope competition assay on CHO human PD1 cells (labelled VH not specified) after 4 days in human serum. As to the method:
Serum stability of VH and multivalent VH constructs was assessed by measurement of their activity following incubation for 0, 1, 4 or 7 days both in mouse (Sigma M5905) and human serum. […] Minimal loss of activity was observed following incubation with serum.

For assay [3] the target is unchanged. Briefly: flow cytometry, PHA-stimulated human CD4+ T cells, Donor 4. The method, then:
Binding of monovalent single domain antibodies and multivalent binding agents to T cells was measured using flow cytometry. Peripheral blood mononuclear cells (PBMCs) were isolated from human blood by density gradient centrifugation then CD4+ T cells purified using a negative selection isolation kit according to the manufacturer's protocol (Miltenyi Biotech cat no 130-096-533). T-cells were stimulated with 2.5 μg/ml PHA for 3 days in RPMI media supplemented with 10% FBS, 2 mM Glutamine, 1× Pen/Strep. Cells were transferred into 96 well plates (75000 per well), blocked for 10 mins with PBS/1% BSA, then incubated with serially diluted VH in staining buffer (PBS/1% BSA) for 1 hour at 4° C. Cells were washed with staining buffer by centrifugation then incubated with 10 μg/ml biotinylated Anti His antibody for 40 mins at 4° C. Cells were washed again then stained with Streptavidin Alexa Fluor-488 (10 μg/ml) and 1:5000 diluted Live Dead near IR stain (Molecular Probes cat no. L10119) for 30 mins at 4° C. After further washing cells were fixed and fluorescence measured by flow cytometry.

The target is the same in assay [4]. Briefly: epitope competition assay on CHO human PD1 cells (labelled VH 1.51a, 1.57b or 1.1a, not specified) after 0 days in human serum.

T1 sequence (Q15116 21-288): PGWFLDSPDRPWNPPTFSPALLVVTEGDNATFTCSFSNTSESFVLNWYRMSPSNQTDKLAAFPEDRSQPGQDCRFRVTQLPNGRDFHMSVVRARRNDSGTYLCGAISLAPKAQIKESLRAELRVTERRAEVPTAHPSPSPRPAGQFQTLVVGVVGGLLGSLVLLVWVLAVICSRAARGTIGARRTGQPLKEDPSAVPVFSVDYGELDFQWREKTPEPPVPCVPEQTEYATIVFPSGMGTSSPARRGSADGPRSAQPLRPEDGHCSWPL

B1: 1.92b-4GS-1.62a (other)
chain: EVQLVESGGGLVKPGGSLRLSCAASGFTFSDESMTWMRQAPGKGLEWVSYISSGGGVKFYADSVKGRFTISRDNAKNSLYLQMNSLRAEDTAVYYCAREAPLRLGESPHDAFDISGQGTMVTVSSGGGGSGGGGSGGGGSGGGGSEVQLVESGGGVVRPGGSLRLSCAASGFTFDDYAMSWVRQAPGKGLEWVSGITWNAGSTGYADSVKGRFTISRDNAKNSLYLQMNSLRAEDTALYYCVRDKYSYAWSYDDFDIWGQGTMVTVSS
notes: Biparatopic VH-linker-VH; also called 1.92-4GS-1.62a; 1.92b-4gs-2.12a
The term IC50 denotes the concentration needed to halve the response being measured. The low end stands for inhibition by little substance, the high end for a need for much substance. For orientation: EC50 means the concentration needed to bring the measured effect to its halfway point. A low value points to a more potent agent. Regarding B1, the IC50 in assay [1] was 1.4 nM; in assay [2], 1.1 nM. Further, in assay [3], the EC50 worked out at 0.3 nM.

B2: 1.92b-4GS-1.39a (other)
chain: EVQLVESGGGLVKPGGSLRLSCAASGFTFSDESMTWMRQAPGKGLEWVSYISSGGGVKFYADSVKGRFTISRDNAKNSLYLQMNSLRAEDTAVYYCAREAPLRLGESPHDAFDISGQGTMVTVSSGGGGSGGGGSGGGGSGGGGSEVQLVESGGGLVQPGRSLRLSCAASGFTFDDYALHWVRQAPGKDLEWVSGISWNGGSYGYADSVKGRFTISRDNAKNSLYLQMNSLRAEDTALYYCVREKGPGLTGSTADYYGLDAWGQGTMVTVSS
notes: Biparatopic VH-linker-VH; built from its parts here because it is not clear whether 1112 is the protein or the nucleic acid
As to B2, the IC50 was 1.1 nM in assay [2] and 0.9 nM in assay [4]. For the same molecule, a half-maximal effect in assay [3] (EC50) was put at 0.5 nM.
